# Values quoted from earlier work, collected in article PMC2562372.
# pKd: −log10 of the molar value.
# Assays:
# NRP1 (Homo sapiens) = NRP1 (Homo sapiens) (UniProt O14786)
# VEGFR1 (Homo sapiens) = VEGFR1 (Homo sapiens) (UniProt P17948)
# VEGFR2 (Homo sapiens) = VEGFR2 (Homo sapiens) (UniProt P35968)
# Chain of UniProt P35968 (P35968 20-1356): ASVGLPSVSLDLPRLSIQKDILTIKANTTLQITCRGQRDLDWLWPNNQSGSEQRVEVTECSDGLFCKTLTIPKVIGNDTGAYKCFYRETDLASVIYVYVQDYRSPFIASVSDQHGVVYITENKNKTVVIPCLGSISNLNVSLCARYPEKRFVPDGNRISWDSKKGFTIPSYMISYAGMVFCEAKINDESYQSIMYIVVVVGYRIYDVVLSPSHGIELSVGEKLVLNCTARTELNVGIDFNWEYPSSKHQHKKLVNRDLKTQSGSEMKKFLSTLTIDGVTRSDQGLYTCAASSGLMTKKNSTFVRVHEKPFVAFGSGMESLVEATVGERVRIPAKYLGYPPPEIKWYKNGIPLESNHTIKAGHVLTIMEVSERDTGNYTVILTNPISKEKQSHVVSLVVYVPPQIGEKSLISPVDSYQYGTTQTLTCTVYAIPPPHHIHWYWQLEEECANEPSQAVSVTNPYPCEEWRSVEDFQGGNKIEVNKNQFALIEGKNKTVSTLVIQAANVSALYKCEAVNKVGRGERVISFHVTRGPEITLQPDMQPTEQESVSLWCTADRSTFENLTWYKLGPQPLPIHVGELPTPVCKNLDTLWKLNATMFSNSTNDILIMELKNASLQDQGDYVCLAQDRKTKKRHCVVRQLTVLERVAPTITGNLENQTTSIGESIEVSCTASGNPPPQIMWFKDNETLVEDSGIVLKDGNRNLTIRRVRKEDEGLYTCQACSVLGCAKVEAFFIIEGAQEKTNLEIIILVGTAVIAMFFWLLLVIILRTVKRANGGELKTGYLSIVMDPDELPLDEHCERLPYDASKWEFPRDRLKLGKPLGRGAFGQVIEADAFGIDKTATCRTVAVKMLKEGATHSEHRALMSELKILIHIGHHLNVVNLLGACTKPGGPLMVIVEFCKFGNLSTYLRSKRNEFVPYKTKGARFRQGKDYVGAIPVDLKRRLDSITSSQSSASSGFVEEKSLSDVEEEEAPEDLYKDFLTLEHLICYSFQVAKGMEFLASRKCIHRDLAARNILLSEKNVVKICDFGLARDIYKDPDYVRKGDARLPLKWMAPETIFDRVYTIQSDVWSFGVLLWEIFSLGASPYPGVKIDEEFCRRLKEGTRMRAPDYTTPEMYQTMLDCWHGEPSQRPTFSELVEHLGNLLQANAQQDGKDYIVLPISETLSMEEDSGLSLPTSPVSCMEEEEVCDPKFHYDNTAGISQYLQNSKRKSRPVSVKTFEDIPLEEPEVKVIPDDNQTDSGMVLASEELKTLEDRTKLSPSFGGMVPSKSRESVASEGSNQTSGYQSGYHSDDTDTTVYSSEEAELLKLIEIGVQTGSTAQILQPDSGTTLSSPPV
# Chain of UniProt P17948 (P17948 27-1338): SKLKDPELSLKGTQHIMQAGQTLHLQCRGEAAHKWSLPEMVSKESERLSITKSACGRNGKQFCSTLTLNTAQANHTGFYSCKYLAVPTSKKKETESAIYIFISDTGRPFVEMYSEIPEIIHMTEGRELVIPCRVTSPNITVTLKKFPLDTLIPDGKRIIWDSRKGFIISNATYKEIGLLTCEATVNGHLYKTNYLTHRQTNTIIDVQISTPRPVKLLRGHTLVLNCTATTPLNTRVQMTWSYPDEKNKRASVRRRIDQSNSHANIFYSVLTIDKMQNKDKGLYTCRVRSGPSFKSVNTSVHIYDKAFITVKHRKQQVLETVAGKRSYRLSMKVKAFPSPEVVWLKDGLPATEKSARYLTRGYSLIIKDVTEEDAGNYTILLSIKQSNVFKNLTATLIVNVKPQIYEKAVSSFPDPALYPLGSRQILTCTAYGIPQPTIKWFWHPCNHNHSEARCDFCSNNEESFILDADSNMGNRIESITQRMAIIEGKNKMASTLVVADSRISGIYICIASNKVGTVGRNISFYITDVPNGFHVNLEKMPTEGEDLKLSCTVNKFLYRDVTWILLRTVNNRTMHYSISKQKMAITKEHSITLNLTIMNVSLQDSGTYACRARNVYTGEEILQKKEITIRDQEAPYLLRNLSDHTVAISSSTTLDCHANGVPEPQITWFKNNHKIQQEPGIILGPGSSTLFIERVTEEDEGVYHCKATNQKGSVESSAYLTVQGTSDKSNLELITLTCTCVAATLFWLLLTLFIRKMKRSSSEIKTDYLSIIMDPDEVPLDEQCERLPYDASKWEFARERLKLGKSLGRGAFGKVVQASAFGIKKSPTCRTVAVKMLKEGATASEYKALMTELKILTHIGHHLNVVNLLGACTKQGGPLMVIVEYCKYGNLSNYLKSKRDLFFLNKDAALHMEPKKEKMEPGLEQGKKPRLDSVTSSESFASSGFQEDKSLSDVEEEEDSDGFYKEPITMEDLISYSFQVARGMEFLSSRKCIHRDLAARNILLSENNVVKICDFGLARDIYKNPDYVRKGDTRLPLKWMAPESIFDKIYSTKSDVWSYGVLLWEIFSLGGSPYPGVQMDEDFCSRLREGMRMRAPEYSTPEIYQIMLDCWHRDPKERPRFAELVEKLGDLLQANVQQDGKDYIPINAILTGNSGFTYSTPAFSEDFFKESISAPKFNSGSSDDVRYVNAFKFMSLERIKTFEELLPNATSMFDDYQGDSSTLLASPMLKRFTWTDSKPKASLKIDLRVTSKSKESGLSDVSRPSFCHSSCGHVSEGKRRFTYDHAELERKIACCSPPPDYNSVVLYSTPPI
# Chain of UniProt O14786 (O14786 22-923): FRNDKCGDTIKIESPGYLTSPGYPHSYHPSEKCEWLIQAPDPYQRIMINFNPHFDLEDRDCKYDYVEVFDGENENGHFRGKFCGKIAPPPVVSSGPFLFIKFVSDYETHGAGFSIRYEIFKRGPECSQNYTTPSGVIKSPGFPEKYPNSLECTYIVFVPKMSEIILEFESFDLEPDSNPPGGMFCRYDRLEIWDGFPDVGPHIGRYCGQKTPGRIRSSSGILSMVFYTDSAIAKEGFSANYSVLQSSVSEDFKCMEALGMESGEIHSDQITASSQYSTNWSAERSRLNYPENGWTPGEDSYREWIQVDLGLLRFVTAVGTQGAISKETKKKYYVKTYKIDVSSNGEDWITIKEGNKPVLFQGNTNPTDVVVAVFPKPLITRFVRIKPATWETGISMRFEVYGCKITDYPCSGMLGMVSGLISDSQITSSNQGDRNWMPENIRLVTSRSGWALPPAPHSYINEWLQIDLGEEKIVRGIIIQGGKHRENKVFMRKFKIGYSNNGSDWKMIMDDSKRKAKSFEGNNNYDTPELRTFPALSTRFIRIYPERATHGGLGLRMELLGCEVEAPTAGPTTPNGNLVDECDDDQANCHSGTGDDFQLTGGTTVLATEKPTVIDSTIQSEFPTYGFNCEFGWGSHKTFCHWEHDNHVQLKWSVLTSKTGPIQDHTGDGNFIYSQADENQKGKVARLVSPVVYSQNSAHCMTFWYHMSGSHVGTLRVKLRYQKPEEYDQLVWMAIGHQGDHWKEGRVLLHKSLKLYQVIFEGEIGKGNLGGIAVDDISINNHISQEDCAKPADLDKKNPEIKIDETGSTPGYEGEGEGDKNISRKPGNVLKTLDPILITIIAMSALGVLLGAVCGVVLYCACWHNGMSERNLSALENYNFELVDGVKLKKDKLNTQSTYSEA
Substance,pKd (NRP1 (Homo sapiens)),pKd (VEGFR1 (Homo sapiens)),pKd (VEGFR2 (Homo sapiens))
VEGF165 (from UniProt P15692),9.51,–,–
VEGF (from UniProt P15692),–,10.48,10.00
